# Target: C3 convertase complex (UniProt P01024 23-1663; P00751 260-764)
# Assay: cell-based or functional assay
# Throughout, for C3 convertase activity % of the control: test concentration or dose not given here.
# Sequence of C3 convertase complex (P01024 23-1663, chain 1 of 2): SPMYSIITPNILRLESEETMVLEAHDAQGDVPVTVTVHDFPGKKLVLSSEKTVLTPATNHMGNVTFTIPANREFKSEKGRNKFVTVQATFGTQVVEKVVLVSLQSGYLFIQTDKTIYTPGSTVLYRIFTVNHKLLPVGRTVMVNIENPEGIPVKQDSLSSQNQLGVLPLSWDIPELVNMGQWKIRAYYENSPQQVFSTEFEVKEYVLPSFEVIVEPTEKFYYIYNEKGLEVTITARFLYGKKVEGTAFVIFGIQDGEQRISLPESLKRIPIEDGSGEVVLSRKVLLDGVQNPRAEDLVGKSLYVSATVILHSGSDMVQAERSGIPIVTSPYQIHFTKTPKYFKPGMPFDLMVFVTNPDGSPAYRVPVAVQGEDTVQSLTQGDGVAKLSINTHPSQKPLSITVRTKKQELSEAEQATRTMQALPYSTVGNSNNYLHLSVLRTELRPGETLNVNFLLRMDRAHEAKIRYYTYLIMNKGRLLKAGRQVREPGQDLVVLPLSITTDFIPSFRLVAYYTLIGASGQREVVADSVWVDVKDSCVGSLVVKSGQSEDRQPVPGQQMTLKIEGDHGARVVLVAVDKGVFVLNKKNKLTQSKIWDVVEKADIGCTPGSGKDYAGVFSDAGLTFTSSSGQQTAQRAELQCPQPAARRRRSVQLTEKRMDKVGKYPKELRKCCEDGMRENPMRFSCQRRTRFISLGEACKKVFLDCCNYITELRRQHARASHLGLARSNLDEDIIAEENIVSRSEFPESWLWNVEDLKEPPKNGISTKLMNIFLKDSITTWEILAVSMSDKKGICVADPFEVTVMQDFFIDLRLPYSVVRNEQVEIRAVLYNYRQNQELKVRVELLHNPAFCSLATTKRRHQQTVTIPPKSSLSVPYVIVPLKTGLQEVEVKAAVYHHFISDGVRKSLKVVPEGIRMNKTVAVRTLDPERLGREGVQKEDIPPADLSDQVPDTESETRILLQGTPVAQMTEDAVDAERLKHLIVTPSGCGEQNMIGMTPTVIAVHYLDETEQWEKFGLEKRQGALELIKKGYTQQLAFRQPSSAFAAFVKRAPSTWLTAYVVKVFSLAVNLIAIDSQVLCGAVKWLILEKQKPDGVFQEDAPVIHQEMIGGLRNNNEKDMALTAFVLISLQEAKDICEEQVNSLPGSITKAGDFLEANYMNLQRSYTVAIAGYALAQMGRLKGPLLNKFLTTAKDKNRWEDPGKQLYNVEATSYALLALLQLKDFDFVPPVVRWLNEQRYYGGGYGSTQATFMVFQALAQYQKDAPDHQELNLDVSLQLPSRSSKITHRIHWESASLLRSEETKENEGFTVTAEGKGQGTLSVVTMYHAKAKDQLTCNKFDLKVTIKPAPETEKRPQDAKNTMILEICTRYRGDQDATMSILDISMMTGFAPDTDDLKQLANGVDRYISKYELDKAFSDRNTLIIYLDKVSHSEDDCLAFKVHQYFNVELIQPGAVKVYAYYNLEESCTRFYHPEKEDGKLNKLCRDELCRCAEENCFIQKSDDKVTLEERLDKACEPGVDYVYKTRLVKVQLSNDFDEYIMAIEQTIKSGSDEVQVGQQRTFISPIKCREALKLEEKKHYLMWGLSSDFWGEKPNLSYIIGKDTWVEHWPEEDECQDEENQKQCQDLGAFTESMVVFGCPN
# Sequence of C3 convertase complex (P00751 260-764, chain 2 of 2): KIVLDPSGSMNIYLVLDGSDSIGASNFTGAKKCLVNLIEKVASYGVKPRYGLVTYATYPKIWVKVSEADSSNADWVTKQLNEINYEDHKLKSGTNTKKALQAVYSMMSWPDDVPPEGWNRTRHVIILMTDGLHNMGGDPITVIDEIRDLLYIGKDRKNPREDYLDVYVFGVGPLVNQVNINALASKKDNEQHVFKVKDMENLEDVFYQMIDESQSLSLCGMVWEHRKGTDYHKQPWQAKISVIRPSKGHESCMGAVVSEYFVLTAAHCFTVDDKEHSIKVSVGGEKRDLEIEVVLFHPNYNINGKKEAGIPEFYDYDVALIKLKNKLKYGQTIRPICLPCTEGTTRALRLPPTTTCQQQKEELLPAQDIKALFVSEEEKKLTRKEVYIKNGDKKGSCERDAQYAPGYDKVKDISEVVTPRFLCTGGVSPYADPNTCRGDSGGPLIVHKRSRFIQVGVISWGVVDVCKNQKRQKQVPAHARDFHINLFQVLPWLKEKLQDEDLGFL
Binder,C3 convertase activity % of the control,C3 convertase activity IC50 [µg/mL]
pCEP4-1NT9-11CT20 (other) EDCNELPPRRNTEILTGSWSDQTYPEGTQAIYKCRPGYRSLGNVIMVCRKGEWVALNPLRKCQKRPCGHPGDTPFGTFTLTGGNVFEYGVKAVYTCNEGYQLLGEINYRECDTDGWTNDIPICEVVKCLPVTAPENGKIVSSAMEPDREYHFGQAVRFVCNSGYKIEGDEEMHCSDDGFWSKEKPKCVEISCKSPDVINGSPISQKIIYKENERFQYKCNMGYEYSERGDAVCTESGWRPLPSCEEKSCDNPYIPNGDYSPLRIKHRTGDEITYQCRNGFYPATRGNTAKCTSTGWIPAPRCTLKPCDYPDIKHGGLYHENMRRPYFPVAVGKYYSYYCDEHFETPSGSYWDHIHCTQDGWSPAVPCLRKCYFPYLENGYNQNHGRKFVQGKSIDVACHPGYALPKAQTTVTCMENGWSPTPRCIRVKTCSKSSIDIENGFISESQYTYALKEKAKYQCKLGYVTADGETSGSITCGKDGWSAQPTCIKSCDIPVFMNARTKNDFTWFKLNDTLDYECHDGYESNTGSTTGSIVCGYNGWSDLPICYEREGASGCGPPPELLNGNVKEKTKEEYGHSEVVEYYCNPRFLMKGPNKIQCVDGEWTTLPVCIVEESTCGDIPELEHGWAQLSSPPYYYGDSVEFNCSESFTMIGHRSITCIHGVWTQLPQCVAIDKLKKCKSSNLIILEEHLKNKKEFDHNSNIRYRCRGKEGWIHTVCINGRWDPEVNCSMAQIQLCPPPPQIPNSHNMTTTLNYRDGEKVSVLCQENYLIQEGEEITCKDGRWQSIPLCVEKIPCSQPPQIEHGTINSSRSSQESYAHGTKLSYTCEGGFRISEENETTCYMGKWSSPPQCEGLPCKSPPEISHGVVAHMSDSYQYGEEVTYKCFEGFGIDGPAIAKCLGEKWSHPPSCIKTDCLSLPSFENAIPMGEKKDVYKAGEQVTYTCATYYKMDGASNVTCINSRWTGRPTCRDTSCVNPPTVQNAYIVSRQMSKYPSGERVRYQCRSPYEMFGDEEVMCLNGNWTEPPQCKDSTGKCGPPPPIDNGDITSFPLSVYAPASSVEYQCQNLYQLEGNKRITCRNGQWSEPPKCLHPCVISREIMENYNIALRWTAKQKLYSRTGESVEFVCKRGYRLSSRSHTLRTTCWDGKLEYPTCAKRGGSGHHHHHH,69 % of the control,0.172
pCEP4-1NT8-11CT20 (other) EDCNELPPRRNTEILTGSWSDQTYPEGTQAIYKCRPGYRSLGNVIMVCRKGEWVALNPLRKCQKRPCGHPGDTPFGTFTLTGGNVFEYGVKAVYTCNEGYQLLGEINYRECDTDGWTNDIPICEVVKCLPVTAPENGKIVSSAMEPDREYHFGQAVRFVCNSGYKIEGDEEMHCSDDGFWSKEKPKCVEISCKSPDVINGSPISQKIIYKENERFQYKCNMGYEYSERGDAVCTESGWRPLPSCEEKSCDNPYIPNGDYSPLRIKHRTGDEITYQCRNGFYPATRGNTAKCTSTGWIPAPRCTLKPCDYPDIKHGGLYHENMRRPYFPVAVGKYYSYYCDEHFETPSGSYWDHIHCTQDGWSPAVPCLRKCYFPYLENGYNQNYGRKFVQGKSIDVACHPGYALPKAQTTVTCMENGWSPTPRCIRVKTCSKSSIDIENGFISESQYTYALKEKAKYQCKLGYVTADGETSGSITCGKDGWSAQPTCIKSGASGCGPPPELLNGNVKEKTKEEYGHSEVVEYYCNPRFLMKGPNKIQCVDGEWTTLPVCIVEESTCGDIPELEHGWAQLSSPPYYYGDSVEFNCSESFTMIGHRSITCIHGVWTQLPQCVAIDKLKKCKSSNLIILEEHLKNKKEFDHNSNIRYRCRGKEGWIHTVCINGRWDPEVNCSMAQIQLCPPPPQIPNSHNMTTTLNYRDGEKVSVLCQENYLIQEGEEITCKDGRWQSIPLCVEKIPCSQPPQIEHGTINSSRSSQESYAHGTKLSYTCEGGFRISEENETTCYMGKWSSPPQCEGLPCKSPPEISHGVVAHMSDSYQYGEEVTYKCFEGFGIDGPAIAKCLGEKWSHPPSCIKTDCLSLPSFENAIPMGEKKDVYKAGEQVTYTCATYYKMDGASNVTCINSRWTGRPTCRDTSCVNPPTVQNAYIVSRQMSKYPSGERVRYQCRSPYEMFGDEEVMCLNGNWTEPPQCKDSTGKCGPPPPIDNGDITSFPLSVYAPASSVEYQCQNLYQLEGNKRITCRNGQWSEPPKCLHPCVISREIMENYNIALRWTAKQKLYSRTGESVEFVCKRGYRLSSRSHTLRTTCWDGKLEYPTCAKRGGSGHHHHHH,77 % of the control,0.471
pCEP4-1NT7-14CT20 (other) EDCNELPPRRNTEILTGSWSDQTYPEGTQAIYKCRPGYRSLGNVIMVCRKGEWVALNPLRKCQKRPCGHPGDTPFGTFTLTGGNVFEYGVKAVYTCNEGYQLLGEINYRECDTDGWTNDIPICEVVKCLPVTAPENGKIVSSAMEPDREYHFGQAVRFVCNSGYKIEGDEEMHCSDDGFWSKEKPKCVEISCKSPDVINGSPISQKIIYKENERFQYKCNMGYEYSERGDAVCTESGWRPLPSCEEKSCDNPYIPNGDYSPLRIKHRTGDEITYQCRNGFYPATRGNTAKCTSTGWIPAPRCTLKPCDYPDIKHGGLYHENMRRPYFPVAVGKYYSYYCDEHFETPSGSYWDHIHCTQDGWSPAVPCLRKCYFPYLENGYNQNYGRKFVQGKSIDVACHPGYALPKAQTTVTCMENGWSPTPRCIRVKTGASGCPPPPQIPNSHNMTTTLNYRDGEKVSVLCQENYLIQEGEEITCKDGRWQSIPLCVEKIPCSQPPQIEHGTINSSRSSQESYAHGTKLSYTCEGGFRISEENETTCYMGKWSSPPQCEGLPCKSPPEISHGVVAHMSDSYQYGEEVTYKCFEGFGIDGPAIAKCLGEKWSHPPSCIKTDCLSLPSFENAIPMGEKKDVYKAGEQVTYTCATYYKMDGASNVTCINSRWTGRPTCRDTSCVNPPTVQNAYIVSRQMSKYPSGERVRYQCRSPYEMFGDEEVMCLNGNWTEPPQCKDSTGKCGPPPPIDNGDITSFPLSVYAPASSVEYQCQNLYQLEGNKRITCRNGQWSEPPKCLHPCVISREIMENYNIALRWTAKQKLYSRTGESVEFVCKRGYRLSSRSHTLRTTCWDGKLEYPTCAKRGGSGHHHHHH,104 % of the control,0.0645
pCEP4-1NT4-16CT20 (other) EDCNELPPRRNTEILTGSWSDQTYPEGTQAIYKCRPGYRSLGNVIMVCRKGEWVALNPLRKCQKRPCGHPGDTPFGTFTLTGGNVFEYGVKAVYTCNEGYQLLGEINYRECDTDGWTNDIPICEVVKCLPVTAPENGKIVSSAMEPDREYHFGQAVRFVCNSGYKIEGDEEMHCSDDGFWSKEKPKCVEISCKSPDVINGSPISQKIIYKENERFQYKCNMGYEYSERGDAVCTESGWRPLPSCEEKSGASGCKSPPEISHGVVAHMSDSYQYGEEVTYKCFEGFGIDGPAIAKCLGEKWSHPPSCIKTDCLSLPSFENAIPMGEKKDVYKAGEQVTYTCATYYKMDGASNVTCINSRWTGRPTCRDTSCVNPPTVQNAYIVSRQMSKYPSGERVRYQCRSPYEMFGDEEVMCLNGNWTEPPQCKDSTGKCGPPPPIDNGDITSFPLSVYAPASSVEYQCQNLYQLEGNKRITCRNGQWSEPPKCLHPCVISREIMENYNIALRWTAKQKLYSRTGESVEFVCKRGYRLSSRSHTLRTTCWDGKLEYPTCAKRGGSGHHHHHH,239 % of the control,0.0281
pCEP4-1NT7-8CT20 (other) EDCNELPPRRNTEILTGSWSDQTYPEGTQAIYKCRPGYRSLGNVIMVCRKGEWVALNPLRKCQKRPCGHPGDTPFGTFTLTGGNVFEYGVKAVYTCNEGYQLLGEINYRECDTDGWTNDIPICEVVKCLPVTAPENGKIVSSAMEPDREYHFGQAVRFVCNSGYKIEGDEEMHCSDDGFWSKEKPKCVEISCKSPDVINGSPISQKIIYKENERFQYKCNMGYEYSERGDAVCTESGWRPLPSCEEKSCDNPYIPNGDYSPLRIKHRTGDEITYQCRNGFYPATRGNTAKCTSTGWIPAPRCTLKPCDYPDIKHGGLYHENMRRPYFPVAVGKYYSYYCDEHFETPSGSYWDHIHCTQDGWSPAVPCLRKCYFPYLENGYNQNYGRKFVQGKSIDVACHPGYALPKAQTTVTCMENGWSPTPRCIRVKTGASGCSKSSIDIENGFISESQYTYALKEKAKYQCKLGYVTADGETSGSITCGKDGWSAQPTCIKSCDIPVFMNARTKNDFTWFKLNDTLDYECHDGYESNTGSTTGSIVCGYNGWSDLPICYERECELPKIDVHLVPDRKKDQYKVGEVLKFSCKPGFTIVGPNSVQCYHFGLSPDLPICKEQVQSCGPPPELLNGNVKEKTKEEYGHSEVVEYYCNPRFLMKGPNKIQCVDGEWTTLPVCIVEESTCGDIPELEHGWAQLSSPPYYYGDSVEFNCSESFTMIGHRSITCIHGVWTQLPQCVAIDKLKKCKSSNLIILEEHLKNKKEFDHNSNIRYRCRGKEGWIHTVCINGRWDPEVNCSMAQIQLCPPPPQIPNSHNMTTTLNYRDGEKVSVLCQENYLIQEGEEITCKDGRWQSIPLCVEKIPCSQPPQIEHGTINSSRSSQESYAHGTKLSYTCEGGFRISEENETTCYMGKWSSPPQCEGLPCKSPPEISHGVVAHMSDSYQYGEEVTYKCFEGFGIDGPAIAKCLGEKWSHPPSCIKTDCLSLPSFENAIPMGEKKDVYKAGEQVTYTCATYYKMDGASNVTCINSRWTGRPTCRDTSCVNPPTVQNAYIVSRQMSKYPSGERVRYQCRSPYEMFGDEEVMCLNGNWTEPPQCKDSTGKCGPPPPIDNGDITSFPLSVYAPASSVEYQCQNLYQLEGNKRITCRNGQWSEPPKCLHPCVISREIMENYNIALRWTAKQKLYSRTGESVEFVCKRGYRLSSRSHTLRTTCWDGKLEYPTCAKRGGSGHHHHHH,72 % of the control,0.542
pCEP4-1NT4-19CT20 (other) EDCNELPPRRNTEILTGSWSDQTYPEGTQAIYKCRPGYRSLGNVIMVCRKGEWVALNPLRKCQKRPCGHPGDTPFGTFTLTGGNVFEYGVKAVYTCNEGYQLLGEINYRECDTDGWTNDIPICEVVKCLPVTAPENGKIVSSAMEPDREYHFGQAVRFVCNSGYKIEGDEEMHCSDDGFWSKEKPKCVEISCKSPDVINGSPISQKIIYKENERFQYKCNMGYEYSERGDAVCTESGWRPLPSCEEKSGASGCGPPPPIDNGDITSFPLSVYAPASSVEYQCQNLYQLEGNKRITCRNGQWSEPPKCLHPCVISREIMENYNIALRWTAKQKLYSRTGESVEFVCKRGYRLSSRSHTLRTTCWDGKLEYPTCAKRGGSGHHHHHH,73 % of the control,0.0916

# From US20170190753A1 (LABORATOIRE FRANCAIS DU FRACTIONNEMENT ET DES …, published 2017)
